Data published in patent US20170183421A1 (Gilead, published 2017).
Where “and” joins values, the source holds several entries; their conditions need not be identical. Equal entries are not always repeated. Where two headings read alike, the source gives them in different places. Each block holds one binder with its values, some of them ahead of it.

How the values were obtained:
[1] = target: T1, Human MMP9 (human, UniProt P14780 20-707); experiment: ELISA
T1 construct: also called human matrix metalloproteinase-9; gelatinase-B
T1 sequence (P14780 20-707 Q279R/R574P): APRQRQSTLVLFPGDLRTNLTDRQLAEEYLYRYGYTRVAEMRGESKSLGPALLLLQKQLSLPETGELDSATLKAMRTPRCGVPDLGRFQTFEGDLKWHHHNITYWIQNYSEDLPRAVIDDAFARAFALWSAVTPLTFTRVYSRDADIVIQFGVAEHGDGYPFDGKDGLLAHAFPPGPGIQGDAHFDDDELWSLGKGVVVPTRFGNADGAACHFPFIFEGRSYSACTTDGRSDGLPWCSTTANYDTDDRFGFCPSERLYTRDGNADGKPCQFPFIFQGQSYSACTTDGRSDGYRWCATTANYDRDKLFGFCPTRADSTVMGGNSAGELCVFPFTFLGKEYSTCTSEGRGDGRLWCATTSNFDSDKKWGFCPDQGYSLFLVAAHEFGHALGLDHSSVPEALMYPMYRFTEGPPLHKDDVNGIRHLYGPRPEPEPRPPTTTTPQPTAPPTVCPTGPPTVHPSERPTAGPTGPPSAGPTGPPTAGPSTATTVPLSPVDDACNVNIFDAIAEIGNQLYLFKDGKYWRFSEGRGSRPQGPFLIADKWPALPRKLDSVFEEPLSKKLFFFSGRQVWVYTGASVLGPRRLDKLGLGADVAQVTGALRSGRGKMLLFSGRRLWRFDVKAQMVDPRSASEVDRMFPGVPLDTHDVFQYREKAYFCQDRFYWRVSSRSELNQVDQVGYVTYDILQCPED

[2] = target: T2, Cynomolgus monkey MMP9 (cynomolgus monkey, UniProt A0A2K5UU71 20-706); experiment: ELISA
T2 construct: also called cynomolgus MMP9
T2 sequence (A0A2K5UU71 entry or part of it): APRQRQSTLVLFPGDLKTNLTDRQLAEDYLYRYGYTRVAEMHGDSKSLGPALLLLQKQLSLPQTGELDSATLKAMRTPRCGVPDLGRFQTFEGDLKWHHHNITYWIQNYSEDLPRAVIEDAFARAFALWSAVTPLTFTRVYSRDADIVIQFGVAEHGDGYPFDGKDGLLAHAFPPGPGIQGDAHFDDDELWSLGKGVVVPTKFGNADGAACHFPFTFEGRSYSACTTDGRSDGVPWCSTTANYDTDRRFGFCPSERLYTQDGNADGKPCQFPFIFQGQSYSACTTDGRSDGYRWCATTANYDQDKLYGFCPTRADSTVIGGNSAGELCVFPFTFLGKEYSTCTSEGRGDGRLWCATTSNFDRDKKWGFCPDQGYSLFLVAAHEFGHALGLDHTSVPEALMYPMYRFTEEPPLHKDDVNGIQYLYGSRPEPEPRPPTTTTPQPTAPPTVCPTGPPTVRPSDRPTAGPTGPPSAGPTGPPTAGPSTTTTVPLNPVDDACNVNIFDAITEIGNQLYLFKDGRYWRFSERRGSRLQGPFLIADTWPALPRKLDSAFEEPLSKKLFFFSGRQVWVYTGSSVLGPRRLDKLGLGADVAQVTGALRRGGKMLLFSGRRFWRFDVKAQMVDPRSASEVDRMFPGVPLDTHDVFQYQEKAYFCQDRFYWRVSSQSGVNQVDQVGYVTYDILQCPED

[3] = target: T3, Rat MMP9 (rat, UniProt P50282 20-708, limits assumed); experiment: ELISA
T3 sequence (P50282 20-708 limits assumed): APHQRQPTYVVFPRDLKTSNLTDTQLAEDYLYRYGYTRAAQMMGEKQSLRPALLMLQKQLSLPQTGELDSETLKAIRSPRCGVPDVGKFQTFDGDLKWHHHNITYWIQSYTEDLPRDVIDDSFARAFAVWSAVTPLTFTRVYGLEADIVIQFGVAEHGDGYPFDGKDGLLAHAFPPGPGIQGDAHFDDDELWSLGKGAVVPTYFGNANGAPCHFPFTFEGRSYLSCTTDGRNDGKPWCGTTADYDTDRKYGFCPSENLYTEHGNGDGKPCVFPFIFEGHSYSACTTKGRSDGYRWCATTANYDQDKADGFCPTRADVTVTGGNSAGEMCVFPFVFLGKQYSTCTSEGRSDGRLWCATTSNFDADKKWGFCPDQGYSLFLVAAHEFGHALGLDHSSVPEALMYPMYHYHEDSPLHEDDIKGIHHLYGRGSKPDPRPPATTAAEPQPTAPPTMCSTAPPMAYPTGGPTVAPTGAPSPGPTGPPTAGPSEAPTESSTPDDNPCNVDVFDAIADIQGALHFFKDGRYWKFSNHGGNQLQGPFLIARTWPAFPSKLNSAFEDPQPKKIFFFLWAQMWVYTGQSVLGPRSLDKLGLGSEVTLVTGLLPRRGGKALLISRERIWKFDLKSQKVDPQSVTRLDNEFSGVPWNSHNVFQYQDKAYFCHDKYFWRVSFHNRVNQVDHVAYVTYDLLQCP

[4] = target: T1, Human MMP9; experiment: SPR
[5] = target: T1, Human MMP9; experiment: ELISA; remark: listed apart in the source
[6] = target: T2, Cynomolgus monkey MMP9; experiment: ELISA; remark: listed apart in the source
[7] = target: T3, Rat MMP9; experiment: ELISA; remark: listed apart in the source
[8] = target: T1, Human MMP9; experiment: ELISA; remark: listed apart in the source
[9] = target: T2, Cynomolgus monkey MMP9; experiment: ELISA; remark: listed apart in the source
[10] = target: T4, Mouse MMP9 (mouse, UniProt P41245 20-730, limits assumed); experiment: ELISA
T4 construct: also called murine MMP9; wild-type mouse MMP9
T4 sequence (P41245 20-730 limits assumed): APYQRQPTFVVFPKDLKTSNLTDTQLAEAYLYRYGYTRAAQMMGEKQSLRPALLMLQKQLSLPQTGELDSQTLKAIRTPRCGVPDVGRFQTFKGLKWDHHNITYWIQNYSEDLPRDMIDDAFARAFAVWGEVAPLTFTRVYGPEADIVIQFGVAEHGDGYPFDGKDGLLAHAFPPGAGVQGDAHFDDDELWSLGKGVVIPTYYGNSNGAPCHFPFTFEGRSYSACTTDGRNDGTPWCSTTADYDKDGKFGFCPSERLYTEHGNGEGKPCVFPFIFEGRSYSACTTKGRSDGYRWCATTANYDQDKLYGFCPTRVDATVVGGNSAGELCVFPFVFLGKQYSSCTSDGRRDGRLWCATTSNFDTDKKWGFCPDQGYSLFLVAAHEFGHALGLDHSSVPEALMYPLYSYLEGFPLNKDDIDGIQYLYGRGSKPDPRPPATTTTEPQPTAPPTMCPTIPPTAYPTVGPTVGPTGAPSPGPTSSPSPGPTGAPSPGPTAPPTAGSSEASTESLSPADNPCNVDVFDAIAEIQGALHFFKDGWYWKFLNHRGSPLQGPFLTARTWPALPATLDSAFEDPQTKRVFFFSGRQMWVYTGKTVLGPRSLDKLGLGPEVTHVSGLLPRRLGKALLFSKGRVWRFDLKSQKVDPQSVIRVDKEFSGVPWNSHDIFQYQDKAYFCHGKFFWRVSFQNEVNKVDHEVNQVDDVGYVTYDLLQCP

[11] = target: T3, Rat MMP9; experiment: ELISA; remark: listed apart in the source
[12] = target: T1, Human MMP9; experiment: cell-based or functional assay
[13] = target: T1, Human MMP9; experiment: cell-based or functional assay; remark: listed apart in the source
[14] = target: T2, Cynomolgus monkey MMP9; experiment: cell-based or functional assay
[15] = target: T4, Mouse MMP9; experiment: cell-based or functional assay
[16] = target: T3, Rat MMP9; experiment: cell-based or functional assay
[17] = target: T1, Human MMP9; experiment: direct binding and SPR assays
[18] = target: T4, Mouse MMP9; experiment: ELISA; remark: listed apart in the source

Kd [1]: < 0.4 nM
Kd [2]: < 0.4 nM
Kd [3]: < 0.4 nM
Kd [4]: 0.0088 nM
Kd [5]: 0.168 nM
Kd [6]: 0.082 nM
Kd [7]: 0.311 nM
Kd [8]: 0.168 nM
Kd [9]: 0.082 nM
Kd [10]: > 100 nM
Kd [11]: 0.311 nM
IC50, MMP9 enzymatic assay under steady-state conditions [12]: 0.148 nM to 0.161 nM (2×) and 0.158 nM
Activity Assay, Human MMP9 IC50 [13]: 0.691 nM
Activity Assay, Cynomolgus monkey MMP9 IC50 [14]: 0.194 nM
Activity Assay, Mouse MMP9 IC50 [15]: > 100 nM
Activity Assay, Rat MMP9 IC50 [16]: 8.23 nM
Kd [17]: ~0.001 nM
B1: AB0045 (antibody, human IgG4 S228P, kappa, V domains shown)
VH: QVQLQESGPGLVKPSETLSLTCTVSGFSLLSYGVHWVRQPPGKGLEWLGVIWTGGTTNYNSALMSRFTISKDDSKNTVYLKMNSLKTEDTAIYYCARYYYGMDYWGQGTLVTVSS
VL: DIQMTQSPSSLSASVGDRVTITCKASQDVRNTVAWYQQKPGKAPKLLIYSSSYRNTGVPDRFSGSGSGTDFTLTISSLQAEDVAVYYCQQHYITPYTFGGGTKVEIKR
notes: Humanized AB0041, modified IgG4 (S241P); also called humanized variant anti-MMP9 antibody; VH3/Vk4

Kd [8]: > 100 nM
Kd [10]: 0.218 nM
Activity Assay, Human MMP9 IC50 [13]: > 100 nM
Activity Assay, Cynomolgus monkey MMP9 IC50 [14]: > 100 nM
Activity Assay, Mouse MMP9 IC50 [15]: 0.352 nM
Activity Assay, Rat MMP9 IC50 [16]: > 100 nM
B2: AB0046 (antibody, mouse IgG1, kappa, V domains shown)
VH: QVQLQQPGSVLVRPGASVKLSCTASGYTFTSYWMNWVKQRPGQGLEWIGEIYPISGRTNYNEKFKVKATLTVDTSSSTAYMDLNSLTSEDSAVYYCARSRANWDDYWGQGTTLTVSS
VL: DIQMTQTTSSLSASLGDRVTISCSASQGISNYLNWYQQKPDGTFKLLIYYTSILHSGVPSRFSGSGSGTDYSLTISNLEPEDIATYYCQQYGWLPRTFGGGTKLEIKR
notes: Mouse IgG1/kappa raised in MMP9-knockout mice against mouse MMP9; also called surrogate mouse antibody AB0046

Kd [1]: < 0.4 nM
Kd [2]: < 0.4 nM
Kd [3]: < 0.4 nM
Kd [4]: 0.0004 nM
Kd [5]: 0.133 nM
Kd [6]: 0.145 nM
Kd [18]: > 100 nM
Kd [7]: 0.332 nM
Kd [8]: 0.133 nM
Kd [9]: 0.145 nM
Kd [10]: > 100 nM
Kd [11]: 0.332 nM
Activity Assay, Human MMP9 IC50 [13]: 0.569 nM
Activity Assay, Cynomolgus monkey MMP9 IC50 [14]: 0.189 nM
Activity Assay, Mouse MMP9 IC50 [15]: > 100 nM
Activity Assay, Rat MMP9 IC50 [16]: 2.78 nM
B3: AB0041 (antibody, mouse IgG2b, kappa, V domains shown)
VH: QVQLKESGPGLVAPSQSLSITCTVSGFSLLSYGVHWVRQPPGKGLEWLGVIWTGGTTNYNSALMSRLSISKDDSKSQVFLKMNSLQTDDTAIYYCARYYYGMDYWGQGTSVTVSS
VL: DIVMTQSHKFMSTSVGDRVSITCKASQDVRNTVAWYQQKTGQSPKLLIYSSSYRNTGVPDRFTGSGSGTDFTFTISSVQAEDLAVYFCQQHYITPYTFGGGTKLEIKR
notes: Mouse IgG2b/kappa from hybridoma; derived by aligning the variable region entries to the full chains; also called mouse monoclonal anti-MMP9 antibody (AB0041)
